The values below come from publication PMC11074019.

For experiment [1], the target named is Transient receptor potential channel ankyrin 1 (TRPA1) (human (endogenous in MDA-MB-231)) (UniProt O75762).
Experiment [2] has the same target. This is another data set of the same source.

Chain of UniProt O75762 (O75762 whole entry): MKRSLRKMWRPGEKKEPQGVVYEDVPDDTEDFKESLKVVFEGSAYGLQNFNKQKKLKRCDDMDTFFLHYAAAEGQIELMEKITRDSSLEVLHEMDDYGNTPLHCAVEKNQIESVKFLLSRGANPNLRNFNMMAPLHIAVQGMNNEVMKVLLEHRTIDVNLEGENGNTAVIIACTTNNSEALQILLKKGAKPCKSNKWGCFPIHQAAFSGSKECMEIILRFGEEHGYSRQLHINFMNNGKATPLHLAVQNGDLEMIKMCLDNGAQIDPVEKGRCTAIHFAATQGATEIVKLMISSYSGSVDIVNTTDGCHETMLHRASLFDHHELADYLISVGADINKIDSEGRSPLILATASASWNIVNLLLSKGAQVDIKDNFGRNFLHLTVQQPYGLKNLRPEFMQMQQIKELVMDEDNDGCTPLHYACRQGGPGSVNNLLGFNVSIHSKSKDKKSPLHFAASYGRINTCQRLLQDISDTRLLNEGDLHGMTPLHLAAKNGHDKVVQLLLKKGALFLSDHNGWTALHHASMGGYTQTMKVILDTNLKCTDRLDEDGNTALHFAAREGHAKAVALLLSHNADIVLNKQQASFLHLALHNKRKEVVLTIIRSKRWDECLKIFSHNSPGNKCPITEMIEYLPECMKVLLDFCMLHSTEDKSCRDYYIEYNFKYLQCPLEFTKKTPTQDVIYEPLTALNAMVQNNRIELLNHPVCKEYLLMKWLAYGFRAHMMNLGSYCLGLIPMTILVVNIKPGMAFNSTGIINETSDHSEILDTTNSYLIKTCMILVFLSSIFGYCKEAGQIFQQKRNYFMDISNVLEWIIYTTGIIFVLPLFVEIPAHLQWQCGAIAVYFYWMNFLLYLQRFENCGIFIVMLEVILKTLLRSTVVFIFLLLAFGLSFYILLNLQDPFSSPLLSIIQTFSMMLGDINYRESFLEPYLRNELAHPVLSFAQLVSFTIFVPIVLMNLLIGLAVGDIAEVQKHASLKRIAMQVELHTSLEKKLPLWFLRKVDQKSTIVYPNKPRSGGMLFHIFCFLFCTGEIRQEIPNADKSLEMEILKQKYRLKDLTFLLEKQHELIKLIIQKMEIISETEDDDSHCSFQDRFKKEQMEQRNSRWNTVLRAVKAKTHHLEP

In experiment [1], “Recombinant rat NCS-1 (Ca2+-free) (from UniProt P62168 1-190) (natural protein)” had an inward conductance (IG TRPA1) in inside-out patches of MDA-MB-231 CTR cells, without vs with NCS-1 of 104 pS; an inward conductance (IG TRPA1) in inside-out patches of SH-SY5Y cells, without vs with NCS-1 of 110 pS; an outward conductance (OG TRPA1) in inside-out patches of MDA-MB-231 CTR cells, without vs with NCS-1 of 155 pS; an outward conductance (OG TRPA1) in inside-out patches of SH-SY5Y cells, without vs with NCS-1 of 169 pS. Also, in experiment [2], the open probability (Po) of AITC-activated TRPA1 single channels in inside-out patches of MDA-MB-231 CTR cells, with NCS-1 (10 μM) vs without came to 0.883.
